Patent publication US20210301026A1 (ULTRAHUMAN TWELVE, published 2021)
Positions count from the first letter of the chain named. Names and notes keep the numbering of the source.

T1: monomeric cynomolgus monkey CSF1R ectodomain protein (cynomolgus monkey, UniProt P07333 20-517 (human entry))
T1 construct: also called monomeric cyno CSF1R; Cyno CSF1R
T1 chain: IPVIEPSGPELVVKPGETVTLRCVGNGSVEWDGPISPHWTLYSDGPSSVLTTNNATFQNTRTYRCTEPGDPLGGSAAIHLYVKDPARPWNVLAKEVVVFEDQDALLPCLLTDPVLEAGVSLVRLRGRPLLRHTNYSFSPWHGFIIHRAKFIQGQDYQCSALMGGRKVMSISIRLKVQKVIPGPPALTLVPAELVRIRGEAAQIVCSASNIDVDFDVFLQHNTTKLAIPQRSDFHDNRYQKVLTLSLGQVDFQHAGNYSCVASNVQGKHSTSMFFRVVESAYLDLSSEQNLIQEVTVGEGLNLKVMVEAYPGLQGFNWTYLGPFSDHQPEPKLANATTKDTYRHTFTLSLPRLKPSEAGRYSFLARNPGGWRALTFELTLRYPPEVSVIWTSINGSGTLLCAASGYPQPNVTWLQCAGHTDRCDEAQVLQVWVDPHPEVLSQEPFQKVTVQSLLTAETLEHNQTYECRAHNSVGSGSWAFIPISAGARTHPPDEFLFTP

T2: cynomolgus monkey CSF1R human Fc tagged recombinant protein (cynomolgus monkey, UniProt P07333 20-517 (human entry), limits assumed)
T2 construct: also called cyno CSF1R-Fc
T2 chain: T1 chain

B1: MH5 (antibody, human IgG4, V domains shown)
VH: QVQLVQSGAEVKKPGSSVKVSCKASGYTFSSYYMIWVRQAPGQGLEWMGDINPYNGGANYAQKFQGRVTITADESTSTAYMELSSLRSEDTAVYYCAREGPYFSNLYVMDYWGQGTLVTVSS
VL: EIVLTQSPATLSLSPGERATLSCRASQSVSYEGENYLNWYQQKPGQAPRLLIYAASNRATGIPARFSGSGSGTDFTLTISSPEPEDFAVYYCQLSNEDLLTFGGGTKVEIK
notes: Designer (maximally humanized) clone; tested as human IgG4(S228P)/Ckappa IgG; also called mAb-2
B2: 30D02 (antibody, human IgG4, V domains shown)
VH: B1 VH with A58T, N59T
VL: B1 VL with S30E, E32Q, P82L, E97Q
notes: Library-derived clone, tested as human IgG4(S228P)/Ckappa IgG; framework residue limits counted on the grafts
B3: MH4 (antibody, V domains shown)
VH: B1 VH
VL: B1 VL with E32Q, N38A, A54D, P82L, E97Q
notes: Designer clone, human IgG4(S228P)/Ckappa IgG
B4: 29A03 (antibody, human IgG4, V domains shown)
VH: B1 VH with Y32N, N59T, A61N, G100P
VL: B1 VL with S30E, P82L, E97Q
notes: as for B2
B5: 29B07 (antibody, human IgG4, V domains shown)
VH: B1 VH with S30T, M34I, N59T, G100P
VL: B1 VL with S30E, E34D, P82L, E97Q
notes: as for B2
B6: MH6 (antibody, V domains shown)
VH: B1 VH
VL: B1 VL with N38A, P82L, E97Q
notes: as for B3
B7: MH17 (antibody, human IgG4, V domains shown)
VH: B1 VH with Y32A
VL: B1 VL
notes: Deimmunized MH5 derivative, human IgG4(S228P)/Ckappa IgG
B8: MH13 (antibody, human IgG4, V domains shown)
VH: B1 VH with Y32N
VL: B1 VL
notes: as for B7
B9: MH14 (antibody, human IgG4, V domains shown)
VH: B1 VH with Y32A
VL: B1 VL with L50S, L51A
notes: as for B7
B10: MH31 (antibody, human IgG4, V domains shown)
VH: B1 VH with Y32A, Q114R
VL: B1 VL with L50A, L51A
notes: as for B7
B11: MH22 (antibody, human IgG4, V domains shown)
VH: B1 VH with Y32H
VL: B1 VL with L50S, L51A
notes: as for B7
B12: MH23 (antibody, human IgG4, V domains shown)
VH: B1 VH with Y32H
VL: B1 VL with L50A, L51A
notes: as for B7
B13: 30C11 (antibody, human IgG4, V domains shown)
VH: B1 VH with S30T, Y32N, G57T, N59T, G100D
VL: B1 VL with E34D, R58L, A59E, P82L, E97Q
notes: as for B2
B14: 29E11 (antibody, human IgG4, V domains shown)
VH: B1 VH with S30T, G57T, N59T
VL: B1 VL with E32D, N38A, P82L
notes: as for B2
B15: MH38 (antibody, human IgG4, V domains shown)
VH: B1 VH with Y32H, Q114R
VL: B1 VL with L50S, L51A
notes: as for B7
B16: MH9 (antibody, V domains shown)
VH: B1 VH with M34I, G57T
VL: B1 VL with N38A, P82L, E97Q
notes: as for B3

target: T3, monomeric human CSF1R ectodomain protein (human, UniProt P07333 20-517); assay: SPR Biacore, IgG captured, monomeric CSF1R analyte
T3 construct: also called biotinylated monomeric human CSF1R
Description: (§1) Affinity (KD) of purified IgGs was determined via SPR with antigen in-solution on a Biacore 3000 (GE). A mouse anti-human antibody (CH1 specific) was immobilized on a CM5 Sensor Chip to a level of 2000 RU in acetate buffer at pH 4.5 using amine coupling following the Wizard instructions for two channels. One channel was used for background signal correction. The standard running buffer HBS-EP pH 7.4 was used. Regeneration was performed with a single injection of 10 μl of 10 mM Glycine at pH 1.5 at 20 μl/minute. IgG samples were injected for 2 minutes at 50 nM at 30 μl/min followed by and off-rate of 60 seconds. The monomeric ectodomain protein (human CSF1R or cynomolgus monkey CSF1R) was injected in two fold serial dilutions from 100 nM down to 3.1 nM, for 2 minutes at 30 μl/min followed by an off-rate of 300 seconds. The obtained sensorgrams were analysed using the Biacore 3000 evaluation (BIAevaluation) software. The KD was calculated by simultaneous fitting of the association and dissociation phases to a 1:1 Langmuir binding model.
(§2) Biacore analyses of binding affinity were performed for all IgGs to solution-phase, monomeric human and cyno CSF1R proteins (Table 6). […] Affinity differentials of less than 3-fold between human and cyno target orthologs are highly beneficial in pre-clinical drug development analyses as they allow more accurate design and interpretation of e.g. monkey safety, PK and PD modelling experiments.

Kd | koff | kon | Binder
0.22 nM | 0.00036 s⁻¹ | 1.7e+06 M⁻¹ s⁻¹ | B1
0.48 nM | 0.00049 s⁻¹ | 1e+06 M⁻¹ s⁻¹ | B2
1.9 nM | 0.0024 s⁻¹ | 1.3e+06 M⁻¹ s⁻¹ | B3
0.39 nM | 0.0006 s⁻¹ | 1.6e+06 M⁻¹ s⁻¹ | B4
0.34 nM | 0.00051 s⁻¹ | 1.5e+06 M⁻¹ s⁻¹ | B5
0.88 nM | 0.0012 s⁻¹ | 1.3e+06 M⁻¹ s⁻¹ | B6

Target: T1, monomeric cynomolgus monkey CSF1R …
Assay: SPR Biacore, IgG captured, monomeric CSF1R analyte
Description: as §1, §2

Kd | koff | kon | Binder
0.62 nM | 0.00031 s⁻¹ | 500000 M⁻¹ s⁻¹ | B1
1.7 nM | 0.00032 s⁻¹ | 190000 M⁻¹ s⁻¹ | B2
2.9 nM | 0.0014 s⁻¹ | 470000 M⁻¹ s⁻¹ | B3
1.2 nM | 0.00032 s⁻¹ | 270000 M⁻¹ s⁻¹ | B4
0.79 nM | 0.00025 s⁻¹ | 310000 M⁻¹ s⁻¹ | B5
1.3 nM | 0.00064 s⁻¹ | 510000 M⁻¹ s⁻¹ | B6

target: T3, monomeric human CSF1R ectodomain protein; assay: SPR Biacore, IgG captured, monomeric CSF1R analyte; remark: another data set of the same source
Description: as §1

Kd | koff | kon | fold of the affinity of hu0301 | Binder
0.22 nM | 0.00036 s⁻¹ | 1.7e+06 M⁻¹ s⁻¹ | – | B1
0.834 nM | 0.00112 s⁻¹ | 1.35e+06 M⁻¹ s⁻¹ | – | B7
0.397 nM | 0.000673 s⁻¹ | 1.69e+06 M⁻¹ s⁻¹ | ≤ 2 fold | B8

Target: T1, monomeric cynomolgus monkey CSF1R …
Assay: SPR Biacore, IgG captured, monomeric CSF1R analyte
Remark: another data set of the same source
Description: as §1

Kd | koff | kon | fold of the affinity of hu0301 | Binder
0.62 nM | 0.00031 s⁻¹ | 500000 M⁻¹ s⁻¹ | – | B1
1.33 nM | 0.000906 s⁻¹ | 683000 M⁻¹ s⁻¹ | – | B7
0.723 nM | 0.000598 s⁻¹ | 827000 M⁻¹ s⁻¹ | ≤ 2 fold | B8

target: T4, human CSF1R, membrane-presented on cells (human, UniProt P07333 20-972); assay: flow cytometry on HEK-293 cells expressing human CSF1R, MFI
T4 construct: HEK-293 cells transiently transfected with human CSF1R (flow cytometry); the native receptor on primary human monocytes in the proliferation assay; also called human CSF1R+ HEK-293 cells; CSF1R on primary human CD14+ monocytes

EC50 (read off the curve) | Binder
~1 nM | B8

target: T5, human insulin (human, UniProt P01308 25-54; P01308 90-110, limits assumed); assay: ELISA on human insulin (development risk, polyreactivity), binding score
T5 construct: Coated antigen of the polyreactivity ('PK-risk indicator') ELISA
T5 sequence (P01308 25-54 limits assumed, chain 1 of 2): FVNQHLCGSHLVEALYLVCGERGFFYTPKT
T5 sequence (P01308 90-110 limits assumed, chain 2 of 2): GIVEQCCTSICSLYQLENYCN

binding result | Binder
no binding | B7
no binding | B8
no binding | B9
no binding | B10
no binding | B11
no binding | B12

Target: T2, cynomolgus monkey CSF1R human Fc tagged …
Assay: direct titration ELISA on coated cyno CSF1R-Fc, IgG4(S228P) format, OD 450 nm
Description: (§3) Binding and cross-reactivity of the lead panel to the recombinant proteins was initially assessed by binding ELISA. The human CSF1R human Fc tagged recombinant protein and the cynomolgus monkey CSF1R human Fc tagged recombinant protein were coated to the surface of MaxiSorp™ flat-bottom 96 well plate at 1 μg/ml. The purified IgG samples were titrated in two fold serial dilutions starting from 500 nM to 0.008 nM and allowed to bind to the coated antigens. The Fabs were detected using mouse anti-c-myc antibody followed by donkey anti-mouse IgG conjugated to horseradish peroxidase. The IgGs were detected using the mouse anti-human IgG conjugated to horseradish peroxidase. Binding signals were visualized with 3,3′,5,5′-Tetramethylbenzidine Substrate Solution (TMB) and the absorbance measured at 450 nm.

binding result | Binder
binds | B13
binds | B14

Target: T2, cynomolgus monkey CSF1R human Fc tagged …
Assay: as above
Remark: another data set of the same source
Description: as §3

binding result | Binder
binds | B9
binds | B10
binds | B11
binds | B12
binds | B15

target: T6, human CSF1R human Fc tagged recombinant protein (human, UniProt P07333 20-517); assay: direct titration ELISA on coated human CSF1R-Fc, IgG4(S228P) format, OD 450 nm
T6 construct: also called human CSF1R-Fc
Description: as §3

binding result | EC50 (read off the curve) | Binder
binds | – | B13
binds | – | B14
– | ~10 nM | B16

target: T6, human CSF1R human Fc tagged recombinant …; assay: as above; remark: another data set of the same source
Description: as §3

binding result | Binder
binds | B9
binds | B10
binds | B11
binds | B12
binds | B15

target: T3, monomeric human CSF1R ectodomain protein; assay: AlphaScreen competition with mu0301 IgG4(S228P) for biotinylated monomeric human CSF1R
Description: The AlphaScreen assay (Perkin Elmer) was performed in a 25 μl final volume in 384-well white microtiter plates (Greiner). The reaction buffer contained 1×PBS pH 7.3 (Oxoid, Cat. nr. BR0014G) and 0.05% (v/v) Tween® 20 (Sigma, Cat. nr. P9416). Purified IgG samples were titrated in three fold serial dilutions starting at 500 nM final concentration and incubated with biotinylated human CSF1R for 20 minutes at room temperature. […] The emission of light was measured in the EnVision multilabel plate reader (Perkin Elmer) and analysed using the EnVision manager software. Values were reported as Counts Per Second (CPS) and corrected for crosstalk. The EC50 values were calculated using the […] in GraphPad Prism software (GraphPad Software, La Jolla, Calif.).

IC50 | fold lower epitope competition than hu0301 | Binder
2.18 nM | – | B1
3.92 nM | – | B2
18.9 nM | > 2 fold | B3
4.6 nM | – | B4
3.86 nM | – | B5
7.74 nM | > 2 fold | B6
